According to patent publication US20060099684A1:

Target: activated type I collagenase
Assay: cell-based or functional assay

IC50 of inhibition of MMP activity (quantitative radiometric 14C-collagen film assay): 7.5 nM
Substance: T2N (three N-terminal disulfide-bonded loops of human TIMP-2, C-terminal His-tag, expressed in Pichia pastoris) (from UniProt P16035 27-153)
